In the assay the target is PNAd (peripheral node addressin), MECA-79 purified human tonsil lysate. Nature of the assay: precipitation of PNAd with the chimera.

Experimental findings from US20020025923A1 are described below.

B1: L-selectin/IgG chimera (entire extracellular domain of murine L-selectin fused to the Fc domain of human IgG1) (Fc fusion, UniProt P18337 39-332, looked up, not shown: a dimerising Fc or GST)
chain: WTYHYSEKPMNWENARKFCKQNYTDLVAIQNKREIEYLENTLPKSPYYYWIGIRKIGKMWTWVGTNKTLTKEAENWGAGEPNNKKSKEDCVEIYIKRERDSGKWNDDACHKRKAALCYTASCQPGSCNGRGECVETINNHTCICDAGYYGPQCQYVVQCEPLEAPELGTMDCIHPLGNFSFQSKCAFNCSEGRELLGTAETQCGASGNWSSPEPICQVVQCEPLEAPELGTMDCIHPLGNFSFQSKCAFNCSEGRELLGTAETQCGASGNWSSPEPICQETNRSFSKIKEGDYN
In the case of B1, the percent precipitated was above 90%.
